Measurements as given in paper PMC8903895.

Target: dengue virus envelope protein (dengue virus serotype 2 strain New Guinea C)
Experiment: proximity ligation

Substance | PLA foci per cell (WT cells) (foci per cell) | PLA foci per cell (YBX1 KO1 cells) (foci per cell) | PLA foci per cell (YBX1 KO2 cells) (foci per cell)
dengue virus capsid protein (natural protein) | 11 | 5 | 7
dengue virus prM protein (natural protein) | 26 | 58 | 27
